Data published in patent US20140107021A1 (priority 2010, published 2014).
Read-outs that look alike come from different tables or passages of the source. Numbered stars: 1 amine (or outer) side, 2 acyl side, 3 side chain; on linkers, the order of the positions; unused ones are H or OH. Bridge positions count the residues as written; N and C are the ends. Square brackets hold non-standard residues; d marks the D form. Side chains are listed from the residue outwards. Ends that are not written are not given here. * marks the point of attachment. PEG 40 kDa = PEG of 40 kDa covalently attached to Cys; γGlu = O=C(O)[C@H](CCC(=O)[*:2])N[*:1]; C16 acyl = 16 carbon fatty acyl group; PEG40kDa = 40 kDa polyethylene glycol; Palmitoyl = CCCCCCCCCCCCCCCC(=O)*; Myristoyl = CCCCCCCCCCCCCC(=O)*; Ac‑Cys = acetylated cysteine; Aib = CC(C)(N)C(=O)O

Tests used:
Format in all cases: cell-based
glucagon receptor = glucagon receptor (Homo sapiens, UniProt P47871); experiment: cAMP induction at the glucagon receptor (agonist activity), luciferase reporter assay in HEK293 cells; set-up: expressed in transfected cells; host or cells: HEK293; details: for EC50: read-out: GR EC50; for GR relative activity: relative to standard
Source text: (§1) HEK293 cells co-transfected with the receptor and luciferase gene linked to a cAMP responsive element were employed for the bioassay.
(§2) All EC50s and IC50s are reported in the following examples in nM, unless indicated otherwise.

GLP-1 receptor = target: T1, GLP-1 receptor (Homo sapiens, UniProt P43220); experiment: cAMP induction at the GLP-1 receptor (agonist activity), firefly luciferase reporter assay in HEK293 cells; details: for GLP-1R relative activity: Table 5, relative to standard
T1 construct: expressed in transfected cells; host or cells: HEK293
Source text: as §1, §2

GIP receptor = target: T2, GIP receptor (Homo sapiens, UniProt P48546); experiment: cAMP induction at the GIP receptor (agonist activity), luciferase reporter assay in HEK293 cells; details: for GIPR relative activity: Table 5, relative to standard
T2 construct: expressed in transfected cells; host or cells: HEK293
T2 sequence (P48546 22-466): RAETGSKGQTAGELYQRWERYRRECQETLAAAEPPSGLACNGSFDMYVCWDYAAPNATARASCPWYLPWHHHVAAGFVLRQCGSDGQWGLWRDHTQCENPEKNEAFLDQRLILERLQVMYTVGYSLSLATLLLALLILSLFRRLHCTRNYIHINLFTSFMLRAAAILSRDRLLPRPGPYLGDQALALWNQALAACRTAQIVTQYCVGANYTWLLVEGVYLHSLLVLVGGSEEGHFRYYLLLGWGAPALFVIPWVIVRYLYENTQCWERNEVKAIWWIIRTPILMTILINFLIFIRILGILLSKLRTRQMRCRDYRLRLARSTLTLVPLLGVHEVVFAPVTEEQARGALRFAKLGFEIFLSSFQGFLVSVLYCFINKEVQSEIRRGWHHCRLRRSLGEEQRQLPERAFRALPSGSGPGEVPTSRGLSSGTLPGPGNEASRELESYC
Source text: as §1, §2

[1] = Table 7, relative to the native ligand of the receptor
[2] = Table 6, relative to the native ligand at the receptor

T1 sequence (P43220 24-463): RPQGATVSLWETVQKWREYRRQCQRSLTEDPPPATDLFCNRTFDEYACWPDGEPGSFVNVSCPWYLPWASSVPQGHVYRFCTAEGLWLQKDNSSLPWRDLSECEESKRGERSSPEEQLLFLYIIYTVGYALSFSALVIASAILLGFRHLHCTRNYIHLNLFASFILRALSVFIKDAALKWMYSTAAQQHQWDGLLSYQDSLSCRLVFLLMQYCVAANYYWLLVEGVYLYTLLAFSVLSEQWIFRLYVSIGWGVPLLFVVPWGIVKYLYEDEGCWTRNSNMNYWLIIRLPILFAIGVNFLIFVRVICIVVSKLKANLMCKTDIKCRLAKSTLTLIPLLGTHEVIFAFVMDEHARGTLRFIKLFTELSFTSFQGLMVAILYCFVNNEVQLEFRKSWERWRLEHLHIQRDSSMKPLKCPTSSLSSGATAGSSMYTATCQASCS
Chain of glucagon receptor (P47871 26-477): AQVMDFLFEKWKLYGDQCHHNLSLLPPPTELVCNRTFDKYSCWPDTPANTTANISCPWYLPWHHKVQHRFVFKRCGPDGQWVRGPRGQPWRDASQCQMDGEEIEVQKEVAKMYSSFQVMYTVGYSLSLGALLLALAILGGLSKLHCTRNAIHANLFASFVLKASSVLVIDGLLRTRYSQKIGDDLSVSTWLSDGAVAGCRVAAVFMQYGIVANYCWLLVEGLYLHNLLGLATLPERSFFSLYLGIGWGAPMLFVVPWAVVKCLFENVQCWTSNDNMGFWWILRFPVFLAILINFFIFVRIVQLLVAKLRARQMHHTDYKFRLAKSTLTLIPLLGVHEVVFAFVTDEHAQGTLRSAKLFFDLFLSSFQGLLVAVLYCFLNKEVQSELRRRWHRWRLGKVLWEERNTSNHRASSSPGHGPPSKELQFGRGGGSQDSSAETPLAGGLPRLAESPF

| Compound | EC50 (glucagon receptor; Table 5) | GR relative activity (glucagon receptor; Table 5) | GLP-1R relative activity (GLP-1 receptor) | GIPR relative activity (GIP receptor) | also measured |
| --- | --- | --- | --- | --- | --- |
| CC[C@H](C)[C@H](NC(=O)[C@H](CO)NC(=O)[C@H](Cc1ccc(O)cc1)NC(=O)[C@H](CC(=O)O)NC(=O)[C@H](CO)NC(=O)[C@@H](NC(=O)[C@H](Cc1ccccc1)NC(=O)[C@@H](NC(=O)CNC(=O)[C@H](CCC(=O)O)NC(=O)C(C)(C)NC(=O)[C@@H](N)Cc1ccc(O)cc1)[C@@H](C)O)[C@@H](C)O)C(=O)N[C@@H](Cc1ccc(O)cc1)C(=O)N[C@@H](CC(C)C)C(=O)N[C@@H](CC(=O)O)C(=O)N[C@@H](CCCCN)C(=O)N[C@@H](CCC(N)=O)C(=O)N[C@@H](C)C(=O)N[C@@H](C)C(=O)NC(C)(C)C(=O)N[C@@H](CCC(=O)O)C(=O)N[C@@H](Cc1ccccc1)C(=O)N[C@H](C(=O)N[C@@H](CC(N)=O)C(=O)N[C@@H](Cc1c[nH]c2ccccc12)C(=O)N[C@@H](CC(C)C)C(=O)N[C@@H](CC(C)C)C(=O)N[C@@H](C)C(=O)NCC(=O)NCC(=O)N1CCC[C@H]1C(=O)N[C@@H](CO)C(=O)N[C@@H](CO)C(=O)NCC(=O)N[C@@H](C)C(=O)N1CCC[C@H]1C(=O)N1CCC[C@H]1C(=O)N1CCC[C@H]1C(=O)N[C@@H](CO)C(=O)N[C@H](CCCCN)C(N)=O)C(C)C [mt-398] |  |  |  |  | EC50 (glucagon receptor; Table 4): 3.74 nM; EC50 (GLP-1 receptor; Table 4, read-out: GLP-1R EC50): 0.0078 nM; EC50 (GIP receptor; Table 4, read-out: GIPR EC50): 0.0031 nM |
| Chimera2-CEXK40(C16) (H[Aib]QGTFTSDYSKYLDEQAAKEFIAWLMNGGPSSGAPPPSK(Palmitoyl)-NH2) [MT-364] |  |  |  |  | % Relative Activity at GR (glucagon receptor; [1]): 350%; % Relative Activity GLP-1R (GLP-1 receptor; [1]): 355%; % Relative Activity at GIPR (GIP receptor; [1]): 16% |
| E3C24-PEG-K10-C14 (Y[Aib]EGTFTSDK(Myristoyl)SIYLDKQAA[Aib]EFVC(PEG 40 kDa)WLLAGGPSSGAPPPS-NH2) [MT-341] |  |  |  |  | % Relative Activity at GR (glucagon receptor; Table 9): 0.01%; % Relative Activity GLP-1R (GLP-1 receptor; Table 9): 14.6%; % Relative Activity at GIPR (GIP receptor; Table 9): 27.4% |
| E3C24-PEG-K40-C14 (Y[Aib]EGTFTSDYSIYLDKQAA[Aib]EFVC(PEG 40 kDa)WLLAGGPSSGAPPPSK(Myristoyl)-NH2) [MT-353] |  |  |  |  | % Relative Activity at GR (glucagon receptor; Table 9): 0.17%; % Relative Activity GLP-1R (GLP-1 receptor; Table 9): 128.6%; % Relative Activity at GIPR (GIP receptor; Table 9): 102.9% |
| E3K16AIB2,20K10(C16) (Y[Aib]EGTFTSDK(C16 acyl)SIYLDKQAA[Aib]EFVNWLLAGGPSSGAPPPS-NH2) [MT-270] |  |  |  |  | % Relative Activity at GR (glucagon receptor; [2]): 0.1%; % Relative Activity at GR (glucagon receptor; Table 9): 0.06%; % Relative Activity GLP-1R (GLP-1 receptor; [2]): 212%; % Relative Activity GLP-1R (GLP-1 receptor; Table 9): 211.8%; % Relative Activity at GIPR (GIP receptor; [2]): 163%; % Relative Activity at GIPR (GIP receptor; Table 9): 163.3% |
| K40-C16 (Y[Aib]QGTFTSDYSIYLDKQAA[Aib]EFVNWLLAGGPSSGAPPPSK(C16 acyl)-NH2) [MT-278] |  |  |  |  | % Relative Activity at GR (glucagon receptor; Table 9): 588.4%; % Relative Activity GLP-1R (GLP-1 receptor; Table 9): 459.5%; % Relative Activity at GIPR (GIP receptor; Table 9): 846.4% |
| Q3K16AIB20K10(rErE-C16) (Y[Aib]QGTFTSDK([γGlu-γGlu-C16 acyl])SIYLDKQAA[Aib]EFVNWLLAGGPSSGAPPPS-NH2) [MT-384] |  |  |  |  | % Relative Activity at GR (glucagon receptor; [1]): 228%; % Relative Activity GLP-1R (GLP-1 receptor; [1]): 349%; % Relative Activity at GIPR (GIP receptor; [1]): 808% |
| Y1Aib2I7I12K16Q17A18Aib20E21N24-LAG27-29-CEX-K (YXQGTFISDYSIYLDKQAAXEFVNWLLAGGPSSGAPPPSK; HELM PEPTIDE1{Y.[Aib].Q.G.T.F.I.S.D.Y.S.I.Y.L.D.K.Q.A.A.[Aib].E.F.V.N.W.L.L.A.G.G.P.S.S.G.A.P.P.P.S.K.[am]}$$$$V2.0; N-terminus assumed; SMILES CC[C@H](C)[C@H](NC(=O)[C@H](CO)NC(=O)[C@H](Cc1ccc(O)cc1)NC(=O)[C@H](CC(=O)O)NC(=O)[C@H](CO)NC(=O)[C@@H](NC(=O)[C@H](Cc1ccccc1)NC(=O)[C@@H](NC(=O)CNC(=O)[C@H](CCC(N)=O)NC(=O)C(C)(C)NC(=O)[C@@H](N)Cc1ccc(O)cc1)[C@@H](C)O)[C@@H](C)CC)C(=O)N[C@@H](Cc1ccc(O)cc1)C(=O)N[C@@H](CC(C)C)C(=O)N[C@@H](CC(=O)O)C(=O)N[C@@H](CCCCN)C(=O)N[C@@H](CCC(N)=O)C(=O)N[C@@H](C)C(=O)N[C@@H](C)C(=O)NC(C)(C)C(=O)N[C@@H](CCC(=O)O)C(=O)N[C@@H](Cc1ccccc1)C(=O)N[C@H](C(=O)N[C@@H](CC(N)=O)C(=O)N[C@@H](Cc1c[nH]c2ccccc12)C(=O)N[C@@H](CC(C)C)C(=O)N[C@@H](CC(C)C)C(=O)N[C@@H](C)C(=O)NCC(=O)NCC(=O)N1CCC[C@H]1C(=O)N[C@@H](CO)C(=O)N[C@@H](CO)C(=O)NCC(=O)N[C@@H](C)C(=O)N1CCC[C@H]1C(=O)N1CCC[C@H]1C(=O)N1CCC[C@H]1C(=O)N[C@@H](CO)C(=O)N[C@@H](CCCCN)C(N)=O)C(C)C) [MT-357] |  |  |  |  | % Relative Activity at GR (glucagon receptor; Table 8): 170%; % Relative Activity GLP-1R (GLP-1 receptor; Table 8): 0.81%; % Relative Activity at GIPR (GIP receptor; Table 8): 198% |
| mt-217: lactam 16-20 glucagon analog, Lys24 carrying Ala spacer, acetylated Cys and 40 kDa PEG; SEQ ID NO: 19 (Y[Aib]QGTFTSDYSIYLDEQAAKEFVK([Ala-Ac‑Cys-PEG40kDa])FLLAGGPSSGAPPPS-NH2; lactam 16-20) | 13.9 nM | 0.82% | 11.26% | 0.20% |  |
| mt-218: as mt-217 with Glu as the amino acid spacer; SEQ ID NO: 20 (Y[Aib]QGTFTSDYSIYLDEQAAKEFVK([Glu-Ac‑Cys-PEG40kDa])FLLAGGPSSGAPPPS-NH2; lactam 16-20) | 16.3 nM | 0.70% | 7.40% | 0.13% |  |
| mt-219: as mt-217 with Arg as the amino acid spacer; SEQ ID NO: 21 (Y[Aib]QGTFTSDYSIYLDEQAAKEFVK([Arg-Ac‑Cys-PEG40kDa])FLLAGGPSSGAPPPS-NH2; lactam 16-20) | 17.6 nM | 0.65% | 16.56% | .31% |  |
| mt-220: as mt-217 with Phe as the amino acid spacer; SEQ ID NO: 22 (Y[Aib]QGTFTSDYSIYLDEQAAKEFVK([Phe-Ac‑Cys-PEG40kDa])FLLAGGPSSGAPPPS-NH2; lactam 16-20) | 9.67 nM | 1.18% | 13.89% | 0.19% |  |
| mt-225: as mt-217 but modified Lys at position 40 and Asn at position 24; SEQ ID NO: 359 (Y[Aib]QGTFTSDYSIYLDEQAAKEFVNWLLAGGPSSGAPPPSK([Ala-Ac‑Cys-PEG40kDa])-NH2; lactam 16-20) | 2.71 nM | 1.99% | 29.59% | 0.90% |  |
| mt-226: as mt-218 but modified Lys at position 40 and Asn at position 24; SEQ ID NO: 23 (Y[Aib]QGTFTSDYSIYLDEQAAKEFVNWLLAGGPSSGAPPPSK([Glu-Ac‑Cys-PEG40kDa])-NH2; lactam 16-20) | 3.46 nM | 1.56% | 29.90% | 1.16% |  |
| mt-227: as mt-219 but modified Lys at position 40 and Asn at position 24; SEQ ID NO: 360 (Y[Aib]QGTFTSDYSIYLDEQAAKEFVNWLLAGGPSSGAPPPSK([Arg-Ac‑Cys-PEG40kDa])-NH2; lactam 16-20) | 4.24 nM | 1.27% | 36.25% | 1.29% |  |
| mt-228: as mt-220 but modified Lys at position 40 and Asn at position 24; SEQ ID NO: 24 (Y[Aib]QGTFTSDYSIYLDEQAAKEFVNWLLAGGPSSGAPPPSK([Phe-Ac‑Cys-PEG40kDa])-NH2; lactam 16-20) | 5.36 nM | 1.01% | 19.86% | 0.75% |  |
